The values below are quoted from earlier work in PMC5146272.

What is called Kd is the free concentration of one partner at which half of the binding sites on the other are occupied at equilibrium, for simple one-to-one binding.

The target of data set [1] is U2AF35 UHM (Homo sapiens) (UniProt Q01081).
In the next data set the target is Raver1 (Homo sapiens) (UniProt Q8IY67).
Raver1 (Homo sapiens), sequence (Q8IY67 2-606): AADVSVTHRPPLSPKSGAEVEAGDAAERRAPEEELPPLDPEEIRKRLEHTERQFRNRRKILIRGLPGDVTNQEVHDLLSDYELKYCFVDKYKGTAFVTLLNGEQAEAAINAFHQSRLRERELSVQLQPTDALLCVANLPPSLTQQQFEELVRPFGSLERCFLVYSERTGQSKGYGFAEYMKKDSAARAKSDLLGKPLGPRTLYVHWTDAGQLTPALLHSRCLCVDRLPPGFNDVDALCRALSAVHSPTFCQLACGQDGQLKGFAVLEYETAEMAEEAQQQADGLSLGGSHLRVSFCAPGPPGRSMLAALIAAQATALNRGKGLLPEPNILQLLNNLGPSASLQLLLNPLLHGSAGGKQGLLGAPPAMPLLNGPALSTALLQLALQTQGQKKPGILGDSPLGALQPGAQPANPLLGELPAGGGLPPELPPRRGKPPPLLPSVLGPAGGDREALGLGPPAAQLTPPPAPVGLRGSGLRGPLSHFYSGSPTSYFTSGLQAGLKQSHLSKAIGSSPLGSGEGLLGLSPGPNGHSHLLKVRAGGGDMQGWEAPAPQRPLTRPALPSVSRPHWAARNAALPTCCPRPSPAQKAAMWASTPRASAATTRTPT

U2AF65 PEP, sequence (P26368 85-112, one chain of several): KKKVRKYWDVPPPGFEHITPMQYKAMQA
U2AF35 UHM (Homo sapiens), sequence (Q01081 43-146, one chain of several): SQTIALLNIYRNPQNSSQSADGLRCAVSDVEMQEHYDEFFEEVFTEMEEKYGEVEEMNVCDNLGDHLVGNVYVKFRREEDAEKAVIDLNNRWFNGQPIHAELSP
PTB RRM, sequence (P26599 184-260): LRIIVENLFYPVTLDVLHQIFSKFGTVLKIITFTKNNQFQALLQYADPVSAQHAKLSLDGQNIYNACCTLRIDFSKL

Take U2AF65 PEP (from UniProt P26368): the equilibrium dissociation constant (Kd) in data set [1] was 0.002 µM.
On to PTB RRM (from UniProt P26599), for which the dissociation constant (Kd) in the data set with Raver1 (Homo sapiens) is 100 µM.
